Measured values published in patent US20230295310A1 (ABCELLERA BIOLOGICS, published 2023).
Changes are numbered by the printed parent chain.

Legend:
[1] = target: T1, cynomolgus monkey CD3 expressed on cyno primary T cells (cynomolgus monkey, UniProt Q95LI5 22-198; Q95LI8 22-171; Q95LI7 23-181); assay: flow cytometry, cyno primary T cells
T1 construct: whole, on cells; CD3 complex on purified cynomolgus monkey CD3 pan T cells; also called cyno CD3
Procedure, shortened: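 Antibodies at 25 nM in PBS + 2% FBS were incubated with CD3-expressing cells for 30 minutes at 4° C and analysed by flow cytometry. Median fluorescence intensity was normalized to isotype control to give fold over isotype (FOI); FOI ≥10 counted as binding.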

[2] = target: T2, human CD3 expressed on cells (Jurkat cells; human primary T cells) (human, UniProt P07766 23-207; P04234 22-171; P09693 23-182); assay: flow cytometry, 25 nM, human primary T cells
T2 construct: whole, on cells
T2 sequence (P07766 23-207, chain 1 of 3): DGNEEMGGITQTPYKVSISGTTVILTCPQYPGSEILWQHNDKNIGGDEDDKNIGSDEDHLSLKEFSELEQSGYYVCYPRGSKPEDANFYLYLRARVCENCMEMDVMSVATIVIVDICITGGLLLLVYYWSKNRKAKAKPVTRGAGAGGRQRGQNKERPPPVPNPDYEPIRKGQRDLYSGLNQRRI
T2 sequence (P04234 22-171, chain 2 of 3): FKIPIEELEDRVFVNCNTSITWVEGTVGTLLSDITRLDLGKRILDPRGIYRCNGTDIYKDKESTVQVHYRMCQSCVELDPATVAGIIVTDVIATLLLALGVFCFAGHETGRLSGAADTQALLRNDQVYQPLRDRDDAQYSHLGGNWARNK
T2 sequence (P09693 23-182, chain 3 of 3): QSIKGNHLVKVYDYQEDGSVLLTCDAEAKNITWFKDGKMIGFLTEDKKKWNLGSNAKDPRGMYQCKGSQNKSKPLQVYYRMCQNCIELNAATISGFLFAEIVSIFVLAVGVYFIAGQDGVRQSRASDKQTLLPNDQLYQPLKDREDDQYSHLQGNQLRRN
Description: (§1) Purified antibodies were confirmed to bind CD3 expressed on cells using the CytoFLEX S or LX flow cytometers (Beckman Coulter). Antibodies were diluted to 25 nM in FACS buffer (PBS+2% FBS) and were incubated with CD3-expressing cells for 30 minutes at 4° C. […] The median fluorescence intensity of the binding signal for each antibody was normalized to the isotype control to obtain a fold over isotype value. An antibody with a fold over isotype (FOI) of ≥10 was considered to be positive for binding.

[3] = target: T2, human CD3 expressed on cells (Jurkat …); assay: flow cytometry, 25 nM, Jurkat cells
Description: as §1

T1 sequence (Q95LI5 22-198, chain 1 of 3): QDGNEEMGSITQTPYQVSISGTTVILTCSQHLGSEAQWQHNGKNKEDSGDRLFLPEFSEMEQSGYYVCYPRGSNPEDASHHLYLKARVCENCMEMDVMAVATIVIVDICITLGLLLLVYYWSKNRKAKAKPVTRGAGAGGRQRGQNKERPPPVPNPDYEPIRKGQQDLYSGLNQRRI
T1 sequence (Q95LI8 22-171, chain 2 of 3): as the sequence (P04234 22-171, chain 2 of 3) above, with I5V, N15K, I20V, S32T, D33N, I34N, T64A, S74N, V83L, H141R counted along it
T1 sequence (Q95LI7 23-181, chain 3 of 3): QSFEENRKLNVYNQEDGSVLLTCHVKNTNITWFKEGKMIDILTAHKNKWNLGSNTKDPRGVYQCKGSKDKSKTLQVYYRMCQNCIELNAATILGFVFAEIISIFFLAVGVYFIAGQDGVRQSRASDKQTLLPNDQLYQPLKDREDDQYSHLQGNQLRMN

B1: mAb 228 (antibody, V domains shown)
VH: EVQLLESGGGLVQPGGSLRLSCAASGFTFSNYAMNWVRQAPGKGLEWVSTISGSGGGKYYADSVKGRFTISRDNSKNTLYLHMNSLRAEDTAVYYCAKDPVQDRYYFYYYYMDVWGKGTTVTVSS
VL: EIVLTQSPDFQSVTPKEKVTITCRASQSIGSSLHWYQQKPDQSPKLLIKYASQSISGVPSRFSGSGSGTDFTLTINSLEAEDAAAYYCHQSSSLPHTFGQGTKLEIK
notes: VH/VL only
binding result [1]: no binding (tested: FOI <10 (FOI >=10 = positive); 25 nM)
Binding (FOI) [2]: 105 FOI
Binding (FOI) [3]: 159 FOI

B2: mAb 230 (antibody, V domains shown)
VH: B1 VH with N31S, N35S, T50S, G57S, K58R, H82Q
VL: B1 VL
notes: VH/VL only
binding result [1]: no binding (tested: FOI <10 (FOI >=10 = positive); 25 nM)
Binding (FOI) [2]: 55.3 FOI
Binding (FOI) [3]: 141 FOI

B3: mAb 212 (antibody, V domains shown)
VH: EVQLLESGGGLVQPGGSLRLSCAASGFTFSNYAMNWVRQAPGKGLEWVSAISGSRSNTYYADSVKGRFTISRDNSKNTLYLQMNSLRAEDTGVYYCAKGAYSKYPYYYYMDVWGKGTTVTVSS
VL: EIVMTQSPATLSLSPGERATLSCRASQSVSSSYLSWYQQKPGQAPRLLIYGASTRAIGIPARFSGSGSGTDFTLTISSLQAEDFAVYYCQQDDNLPWTFGQGTKVEIK
notes: VH/VL only
binding result [1]: no binding (tested: FOI <10 (FOI >=10 = positive); 25 nM)
Binding (FOI) [2]: 160 FOI
Binding (FOI) [3]: 150 FOI

B4: mAb 214 (antibody, V domains shown)
VH: B3 VH with G92A
VL: B3 VL
notes: VH/VL only
binding result [1]: no binding (tested: FOI <10 (FOI >=10 = positive); 25 nM)
Binding (FOI) [2]: 162 FOI
Binding (FOI) [3]: 150 FOI

B5: mAb 205 (antibody, V domains shown)
VH: QVQLVESGGGVVQPGKSLRLSCAASGFTFSGYGMHWVRQAPGKGLEWVAIIYYNGKKEYYADSVKGRFTISRDNSKNTLYLQMNSLRAEDTAVYYCTRGEGYNWFDPWGQGTLVTVSS
VL: EIVMTQSPATLSVSPGERATLSCRASQSVSSNLAWYQQKPGQAPRLLIYGASTRATGIPARFSGSGSGTEFTLTISSLQSEDFAVYYCKQYNNWPLTFGGGTKVEIK
notes: VH/VL only
binding result [1]: no binding (tested: FOI <10 (FOI >=10 = positive); 25 nM)
Binding (FOI) [2]: 216 FOI
Binding (FOI) [3]: 180 FOI

B6: mAb 194 (antibody, V domains shown)
VH: QEQLVESGGGVVQPGGSLRLSCAASGFIFSGYGMHWVRQAPGKGLEWVAIIWYNGRKTYYAESVKGRFTISRDNSKNTLSLQMNSLRVEDTAVYYCTAGQGYNWFDPWGQGTLVTVSS
VL: B5 VL with K89Q, Y91F, N93A, V104M
notes: VH/VL only
binding result [1]: no binding (tested: FOI <10 (FOI >=10 = positive); 25 nM)
Binding (FOI) [2]: 217 FOI
Binding (FOI) [3]: 199 FOI

B7: mAb 213 (antibody, V domains shown)
VH: B6 VH with I28T, A98T, Q100K
VL: B5 VL with K89Q, Y91F, N93A, V104M
notes: VH/VL only
binding result [1]: no binding (tested: FOI <10 (FOI >=10 = positive); 25 nM)
Binding (FOI) [2]: 248 FOI
Binding (FOI) [3]: 192 FOI

B8: mAb 219 (antibody, V domains shown)
VH: B6 VH with I28M, A61T
VL: B5 VL with K89Q, Y91F, N93A, V104M
notes: VH/VL only
binding result [1]: no binding (tested: FOI <10 (FOI >=10 = positive); 25 nM)
Binding (FOI) [2]: 245 FOI
Binding (FOI) [3]: 175 FOI

B9: mAb 206 (antibody, V domains shown)
VH: QVQLVESGGGVVQPGRSLRLSCAASGFTFSGYGMHWVRQAPGKGLEWVAIIYYNGNNRKYADSVKGRFTISRDNSKNTVSLQMNSLRVEDTAIYYCTRGDGYNWFVTWGQGTLVTVSS
VL: B5 VL with Q37H, A60V, K89Q
notes: VH/VL only
binding result [1]: no binding (tested: FOI <10 (FOI >=10 = positive); 25 nM)
Binding (FOI) [2]: 198 FOI
Binding (FOI) [3]: 186 FOI

B10: mAb 195 (antibody, V domains shown)
VH: B5 VH with V2E, P14S, K16R, A23V, T28K, N54D, K57N, E58K, E100A, P107S
VL: B5 VL with S30R, S31N, A51V, G57A, I58F, K89Q
notes: VH/VL only
binding result [1]: no binding (tested: FOI <10 (FOI >=10 = positive); 25 nM)
Binding (FOI) [2]: 226 FOI
Binding (FOI) [3]: 170 FOI

B11: mAb 225 (antibody, V domains shown)
VH: B6 VH with I28K, S85R
VL: B5 VL with K89Q, Y91F, N93A, V104M
notes: VH/VL only
binding result [1]: no binding (tested: FOI <10 (FOI >=10 = positive); 25 nM)
Binding (FOI) [2]: 267 FOI
Binding (FOI) [3]: 210 FOI

B12: mAb 220 (antibody, V domains shown)
VH: B6 VH with A23V, I28T, A98T, Q100K
VL: B5 VL with K89Q, Y91F, N93A, V104M
notes: VH/VL only
binding result [1]: no binding (tested: FOI <10 (FOI >=10 = positive); 25 nM)
Binding (FOI) [2]: 243 FOI
Binding (FOI) [3]: 181 FOI

B13: mAb 226 (antibody, V domains shown)
VH: B9 VH
VL: B5 VL with V29I, Q37H, A60V, V85L, K89Q
notes: VH/VL only
binding result [1]: no binding (tested: FOI <10 (FOI >=10 = positive); 25 nM)
Binding (FOI) [2]: 199 FOI
Binding (FOI) [3]: 176 FOI

B14: mAb 218 (antibody, V domains shown)
VH: B9 VH with K65R
VL: B5 VL with Q37Y, A60V, K89Q
notes: VH/VL only
binding result [1]: no binding (tested: FOI <10 (FOI >=10 = positive); 25 nM)
Binding (FOI) [2]: 192 FOI
Binding (FOI) [3]: 179 FOI

B15: mAb 210 (antibody, V domains shown)
VH: B9 VH with V48L, I93M
VL: B5 VL with T20A, S30T, Q37H, A60V, K89Q, I106N
notes: VH/VL only
binding result [1]: no binding (tested: FOI <10 (FOI >=10 = positive); 25 nM)
Binding (FOI) [2]: 192 FOI
Binding (FOI) [3]: 168 FOI

B16: mAb 222 (antibody, V domains shown)
VH: B5 VH with K16R, L79V
VL: B5 VL with E1K
notes: VH/VL only
binding result [1]: no binding (tested: FOI <10 (FOI >=10 = positive); 25 nM)
Binding (FOI) [2]: 216 FOI
Binding (FOI) [3]: 180 FOI

B17: mAb 193 (antibody, V domains shown)
VH: B9 VH
VL: B5 VL with Q37H, A60V, E81D, K89Q
notes: VH/VL only
binding result [1]: no binding (tested: FOI <10 (FOI >=10 = positive); 25 nM)
Binding (FOI) [2]: 206 FOI
Binding (FOI) [3]: 163 FOI

B18: mAb 217 (antibody, V domains shown)
VH: B5 VH with K16R, S71F, L79V, N84K
VL: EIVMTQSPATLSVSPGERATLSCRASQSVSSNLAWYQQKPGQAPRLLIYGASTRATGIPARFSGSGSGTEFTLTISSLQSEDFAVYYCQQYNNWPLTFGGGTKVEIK
notes: VH/VL only
binding result [1]: no binding (tested: FOI <10 (FOI >=10 = positive); 25 nM)
Binding (FOI) [2]: 214 FOI
Binding (FOI) [3]: 173 FOI

B19: mAb 221 (antibody, V domains shown)
VH: B6 VH with E2V, I28T
VL: B5 VL with K89Q, Y91F, N93A, V104M
notes: VH/VL only
binding result [1]: no binding (tested: FOI <10 (FOI >=10 = positive); 25 nM)
Binding (FOI) [2]: 239 FOI
Binding (FOI) [3]: 181 FOI

B20: mAb 216 (antibody, V domains shown)
VH: B5 VH with K16R
VL: B5 VL with N92K
notes: VH/VL only
binding result [1]: no binding (tested: FOI <10 (FOI >=10 = positive); 25 nM)
Binding (FOI) [2]: 218 FOI
Binding (FOI) [3]: 182 FOI

B21: mAb 196 (antibody, V domains shown)
VH: QEQLVESGGGVVQSGRSLRLSCVASGFKFSGYGMHWVRQAPGKGLEWVAIIYYDGKNKYYADSVKGRFTVSRDNSKNTLYLQMNSLRAEDTAVYYCTRGAGYNWFDSWGQGTLVTVSS
VL: B5 VL with S30R, S31N, A51V, G57A, I58F, K89Q
notes: VH/VL only
binding result [1]: no binding (tested: FOI <10 (FOI >=10 = positive); 25 nM)
Binding (FOI) [2]: 224 FOI
Binding (FOI) [3]: 172 FOI

B22: mAb 215 (antibody, V domains shown)
VH: B9 VH with S25T
VL: B5 VL with Q37R, A60V, K89Q
notes: VH/VL only; the VL is printed as a fragment of 18 residues only
binding result [1]: no binding (tested: FOI <10 (FOI >=10 = positive); 25 nM)
Binding (FOI) [2]: 202 FOI
Binding (FOI) [3]: 167 FOI

B23: mAb 224 (antibody, V domains shown)
VH: B5 VH with K16R, T78M, S85G, V93I
VL: B5 VL with A19T, S31N, K89Q
notes: VH/VL only
binding result [1]: no binding (tested: FOI <10 (FOI >=10 = positive); 25 nM)
Binding (FOI) [2]: 212 FOI
Binding (FOI) [3]: 181 FOI

B24: mAb 209 (antibody, V domains shown)
VH: B5 VH with K16R, I70V, T78M
VL: B5 VL with S28T, W94R
notes: VH/VL only
binding result [1]: no binding (tested: FOI <10 (FOI >=10 = positive); 25 nM)
Binding (FOI) [2]: 228 FOI
Binding (FOI) [3]: 186 FOI
